Data set [1] addresses His-tagged YvmB protein (MarR-like regulator YvmB, renamed PchR) (B. subtilis). The experiment in a line: SEC; purified YvmB^His-tag fractionated on a Superdex 200 gel-filtration column; major peak with an apparent molecular mass compared with the 19.2 kDa polypeptide; no effector added.
In data set [2] the target is T1, YvmB-His6 (PchR) (Bacillus subtilis (BSB1, trp+ 168 derivative?)) (UniProt P40762).
T1 sequence: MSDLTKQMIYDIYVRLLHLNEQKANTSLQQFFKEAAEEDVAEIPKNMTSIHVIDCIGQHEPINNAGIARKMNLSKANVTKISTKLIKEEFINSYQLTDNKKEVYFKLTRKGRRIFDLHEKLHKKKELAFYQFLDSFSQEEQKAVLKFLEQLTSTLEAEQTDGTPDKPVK
The data set is described as follows: EMSA. The note with it: apparent Kd; EMSA: 1x = 20 mM Tris pH 8, 100 mM KCl, 0.5 mM DTT, 5 mM MgCl2, 0.05 mg/ml BSA, 0.05 mg/ml poly(dIdC) (from 5x buffer); 50 ng Cy5 DNA in 20 uL; 20 min at 30 C ….

For data set [3], the target named is T2, YvmB-His6 (PchR) (Bacillus subtilis (BSB1, trp+ 168 …, UniProt P40762 1-169)).
T2 sequence: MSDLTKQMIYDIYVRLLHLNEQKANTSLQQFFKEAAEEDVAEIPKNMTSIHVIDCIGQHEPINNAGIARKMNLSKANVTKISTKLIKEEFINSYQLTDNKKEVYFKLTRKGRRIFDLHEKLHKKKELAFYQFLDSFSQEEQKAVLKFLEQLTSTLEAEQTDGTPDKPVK
The experiment in a line: EMSA; one complex; apparent Kd; EMSA: 1x = 20 mM Tris pH 8, 100 mM KCl, 0.5 mM DTT, 5 mM MgCl2, 0.05 mg/ml BSA, 0.05 mg/ml poly(dIdC) (from 5x buffer); 50 ng Cy5 DNA in 20 uL; 20 min at 30 C. The note with it: protein: recombinant; tags: C-terminal His6; chain copies: 2; label: 5' Cy5.

Data set [4] deals with T2, YvmB-His6 (PchR). The data set is described as follows: EMSA; two complexes; EMSA: 1x = 20 mM Tris pH 8, 100 mM KCl, 0.5 mM DTT, 5 mM MgCl2, 0.05 mg/ml BSA, 0.05 mg/ml poly(dIdC) (from 5x buffer); 50 ng Cy5 DNA in 20 uL; 20 min at 30 C. The following applies: protein: recombinant; tags: C-terminal His6; chain copies: 2; label: 5' Cy5.

The text below walks through data of paper PMC4992311, “The MarR-like protein PchR (YvmB) regulates expression of genes involved in pulcherriminic acid biosynthesis and in the initiation of sporulation in Bacillus subtilis”.

For “His-tagged YvmB protein (MarR-like regulator YvmB, renamed PchR) (natural protein)”, the stoichiometry N in data set [1] amounted to 2.
On to P-yisI probe, for which the Kd in data set [2] was determined as 2.5 nM.

B1: P1 probe (yvmB-yvmC intergenic, palindrome I) (dsDNA)
DNA 1: TTCCAAATGTTTTTTAAGATTTTAATAATCATTTTCAATACCCATATCATGATAAATGTTTACTAGTAAACATTAGTCATTTTATCCCTTTTCCTTCCAAACGTCAATAT
DNA 2: ATATTGACGTTTGGAAGGAAAAGGGATAAAATGACTAATGTTTACTAGTAAACATTTATCATGATATGGGTATTGAAAATGATTATTAAAATCTTAAAAAACATTTGGAA
For the molecule B1, the Kd in data set [3] turned out to be 5 nM.

B2: P2 probe (yvmB-yvmC intergenic, palindrome II) (dsDNA)
DNA 1: CCAACAATTGACAACGAAAACAAGAAAAGATAAAATAAAATTGTTCACCAGTAAACGATTTGTTTTATTGTTTCATCGTAAACTATTATTCCTAAGAAAGAAGGTAGCCT
DNA 2: AGGCTACCTTCTTTCTTAGGAATAATAGTTTACGATGAAACAATAAAACAAATCGTTTACTGGTGAACAATTTTATTTTATCTTTTCTTGTTTTCGTTGTCAATTGTTGG
Consider B2, for which, in data set [4], the binding result is on record as “binds”.
